This assay concerns the target fusion protein containing the A3B3 domain of CEA (UniProt P06731). Put plainly: competitive ELISA against HRP-conjugated hMN-14 IgG (1 nM). (ELISA stands for enzyme-linked immunosorbent assay.)

Sequence of fusion protein containing the A3B3 domain of CEA (P06731 499-676): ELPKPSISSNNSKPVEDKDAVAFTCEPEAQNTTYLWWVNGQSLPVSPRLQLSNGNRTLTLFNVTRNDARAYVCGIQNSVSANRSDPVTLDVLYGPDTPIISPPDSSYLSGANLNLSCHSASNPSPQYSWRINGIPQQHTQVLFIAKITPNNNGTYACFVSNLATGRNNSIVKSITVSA

TF2 (bispecific antibody): the avidity, fold over TF1 stood at 2 fold.

(Values after patent publication US20110020273A1.)
